Measurements from US10125358B2, “Methods and compounds for increasing threonyl-tRNA synthetase activity” (UNIVERSITY OF VERMONT AND STATE AGRICULTURAL COLLEGE, priority 2012, dated 2018).
Entries after “also recorded” stand apart in the source; their conditions may differ.

What was measured:
TARS [1] = target: T1, TARS (Homo sapiens, UniProt P26639); assay: GTPase (GTP hydrolysis) assay; type: biochemical; design: His6 (N); made in house; host or cells: E. coli Rosetta 2 (DE3)pLysS, plasmid pET28a hctThrRS
T1 sequence (P26639 1-723): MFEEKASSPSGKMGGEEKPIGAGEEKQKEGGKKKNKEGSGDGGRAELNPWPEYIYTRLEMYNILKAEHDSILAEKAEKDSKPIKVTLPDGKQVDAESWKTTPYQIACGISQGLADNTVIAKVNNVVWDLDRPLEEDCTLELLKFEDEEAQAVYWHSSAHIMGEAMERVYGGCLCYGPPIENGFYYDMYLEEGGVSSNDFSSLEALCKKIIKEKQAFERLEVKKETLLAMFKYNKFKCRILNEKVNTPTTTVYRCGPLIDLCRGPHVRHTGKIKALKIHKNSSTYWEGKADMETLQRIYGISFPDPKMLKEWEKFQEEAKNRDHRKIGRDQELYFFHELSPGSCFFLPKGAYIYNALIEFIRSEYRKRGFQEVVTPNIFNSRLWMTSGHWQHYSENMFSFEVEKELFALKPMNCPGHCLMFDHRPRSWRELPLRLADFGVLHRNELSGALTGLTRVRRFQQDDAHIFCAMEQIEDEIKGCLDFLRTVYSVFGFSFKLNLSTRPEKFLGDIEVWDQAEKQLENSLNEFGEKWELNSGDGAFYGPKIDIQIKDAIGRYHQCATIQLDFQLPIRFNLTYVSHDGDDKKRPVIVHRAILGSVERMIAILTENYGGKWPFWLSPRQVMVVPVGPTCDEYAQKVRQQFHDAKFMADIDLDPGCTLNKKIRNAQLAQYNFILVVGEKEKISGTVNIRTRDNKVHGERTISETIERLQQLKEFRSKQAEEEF

HUVECs = assay: Quantitative RT-PCR of TARS mRNA; type: cell-based, human; settings: HUVECs exposed to 50 ng/ml
Description: Total RNA was extracted from cells using the RNeasy column protocol and cDNA was generated using an Omniscript reverse transcriptase assay according to the manufacturer's instructions (Qiagen, Frederick, Md.). Primers and probes for TARS and β2-microglobulin were Assays-on-Demand (Applied Biosystems, [Life Technologies, Carlsbad, Calif.]). RT-qPCR was performed using an ABI prism 7700 Sequence Detection System (Applied Biosystems). The relative quantity of mRNA level was determined using the comparative CT (ΔΔCT) method using β2-microglobulin to normalize mRNA level (Cassavaugh, Hale et al. 2011).

TARS [2] = target: T1, TARS; assay: Ap4A formation assay (TLC, [α-32P]-ATP); type: biochemical; design: His6 (N); made in house; host or cells: E. coli Rosetta 2 (DE3)pLysS, plasmid pET28a hctThrRS; settings: 5 μM enzyme, 2 mM threonine, 2 mM ATP
TARS [3] = target: T1, TARS; assay: Ap4G formation assay (TLC, [α-32P]-GTP); type: biochemical; design: His6 (N); made in house; host or cells: E. coli Rosetta 2 (DE3)pLysS, plasmid pET28a hctThrRS; settings: 2 mM ATP, 2 mM threonine, 2 mM GTP
[4] = tested on: chorioallantoic membrane (CAM) of chicken embryos; assay: Chick chorioallantoic membrane (CAM) assay; type: in vivo; settings: for CAM vessel formation / vascularity, effect of applied synthetase: purified protein applied daily to gelfoam sponge, 72 h
Description: Chick Chorioallantoic Membrane Assay—
Fertilized chicken eggs (Sunrise Farms, Catskill, N.Y.) day 1-2 post-laying were incubated in a humidified incubator at 37° C. for 72 h. Cleaned eggs were cracked and plated in a sterile 10 cm^2 tissue culture-treated dish and incubated at 37° C. for another 7 days. On developmental day 10, 1 mm^3 sterile gelatin sponge pieces (Surgifoam®; Johnson & Johnson Wound Management, Somerville, N.J.) were placed within the outer one-third of the membrane between large vessels. […] All compounds were applied in 10 μl to the CAM every 24 h for 72 h. Images were taken using a Leica MZ6 stereomicroscope every 24 h. Compounds were scored according to a modified version of Intensity Scoring as previously described (Ribatti, Nico et al. 2006). Briefly, each experimental condition was given a blinded score from 0-5 based on the change in the extent of vessel convergence and formation in proximity to the sponge from day 0 to day 3. Total score is averaged individual experimental condition scores from at least 15 replicates.
Fertilized chicken embryos were cultured ex-ova and, starting at developmental day 10, agents were applied daily to gelfoam sponges on the CAM. Images were recorded daily over 72 h and scored blindly according to a modified version Intensity Scoring as previously described (Ribatti, Nico et al. 2006). Additional details regarding methods are provided in the Methods and Materials section of Example 1.

tRNAThr = assay: Steady state aminoacylation assay; type: biochemical, E. coli or human; settings: purified recombinant protein
Description: Steady State Aminoacylation Assay—
The aminoacylation activities of the TARS constructs were determined using modifications to established procedures (Francklyn et al 2008). Briefly, reaction mixtures consisted of 20 mM Tris-HCl pH 8.0, 100 mM KCl, 10 mM MgCl2, 1 mM dithiothreitol, 2 mM ATP, 2.5 U pyrophosphatase (Roche), 80 μM threonine, 20 μM [14C]-threonine, and 5 μM of E. coli or human tRNAThr. Reactions were initiated with the addition of 0.25-0.75 μM TARS and run at 37° C. Aliquots were taken at varying time points and spotted onto Whatmann 3MM paper filters pre-soaked in 5% trichloroacetic acid (TCA). Upon completion, the filters were washed 3 times in excess TCA, once in 95% ethanol, and dried under a heating lamp. The formation of Thr-tRNAThr was detected by scintillation counter and the activity determined by linear regression of threonyl-tRNAThr formed per active site per unit time.

[5] = substrate added to GTPase reaction

Nc1ncnc2c1ncn2[C@@H]1O[C@H](COP(=O)(O)OP(=O)(O)OP(=O)(O)O)[C@@H](O)[C@H]1O [ATP] was tested, and the “decrease in TARS GTPase activity” value (TARS [1]; [5]) was 77%.

In the case of C[C@@H](O)[C@H](N)C(=O)O [threonine], the “increase in TARS GTPase activity” value (TARS [1]; [5]) is reported as 26%.

For TNF-α, the “TARS mRNA level” value (HUVECs) was “neither VEGF nor TNF-α induced an increase; also recorded: do not induce TARS transcription”.

In the case of VEGF, the “TARS mRNA level” value (HUVECs) is reported as “neither VEGF nor TNF-α induced an increase; also recorded: do not induce TARS transcription”.

B1: E. coli ThrRS: bacterial (E. coli) threonyl-tRNA synthetase (protein, UniProt P0A8M3 1-642, looked up)
Threonine--tRNA ligase: MPVITLPDGSQRHYDHAVSPMDVALDIGPGLAKACIAGRVNGELVDACDLIENDAQLSIITAKDEEGLEIIRHSCAHLLGHAIKQLWPHTKMAIGPVIDNGFYYDVDLDRTLTQEDVEALEKRMHELAEKNYDVIKKKVSWHEARETFANRGESYKVSILDENIAHDDKPGLYFHEEYVDMCRGPHVPNMRFCHHFKLMKTAGAYWRGDSNNKMLQRIYGTAWADKKALNAYLQRLEEAAKRDHRKIGKQLDLYHMQEEAPGMVFWHNDGWTIFRELEVFVRSKLKEYQYQEVKGPFMMDRVLWEKTGHWDNYKDAMFTTSSENREYCIKPMNCPGHVQIFNQGLKSYRDLPLRMAEFGSCHRNEPSGSLHGLMRVRGFTQDDAHIFCTEEQIRDEVNGCIRLVYDMYSTFGFEKIVVKLSTRPEKRIGSDEMWDRAEADLAVALEENNIPFEYQLGEGAFYGPKIEFTLYDCLDRAWQCGTVQLDFSLPSRLSASYVGEDNERKVPVMIHRAILGSMERFIGILTEEFAGFFPTWLAPVQVVIMNITDSQSEYVNELTQKLSNAGIRVKADLRNEKIGFKIREHTLRRVPYMLVCGDKEVESGKVAVRTRRGKDLGSMDVNEVIEKLQQEIRSRSLKQLEE
B1 was tested, and the Ap4A production rate (TARS [2]) was 0.5612 Ap4A/active site/min, the Ap4G formation rate (TARS [3]) was 0.5612 Ap4G/active site/min and the GTP hydrolysis rate (TARS [1]; 2 mM GTP) was “not”.

B2: L567V TARS: BC194-resistant (borrelidin-resistant) L567V mutant of human TARS (protein, listed as Homo sapiens)
chain: MFEEKASSPSGKMGGEEKPIGAGEEKQKEGGKKKNKEGSGDGGRAELNPWPEYIYTRLEMYNILKAEHDSILAEKAEKDSKPIKVTLPDGKQVDAESWKTTPYQIACGISQGLADNTVIAKVNNVVWDLDRPLEEDCTLELLKFEDEEAQAVYWHSSAHIMGEAMERVYGGCLCYGPPIENGFYYDMYLEEGGVSSNDFSSLEALCKKIIKEKQAFERLEVKKETLLAMFKYNKFKCRILNEKVNTPTTTVYRCGPLIDLCRGPHVRHTGKIKALKIHKNSSTYWEGKADMETLQRIYGISFPDPKMLKEWEKFQEEAKNRDHRKIGRDQELYFFHELSPGSCFFLPKGAYIYNALIEFIRSEYRKRGFQEVVTPNIFNSRLWMTSGHWQHYSENMFSFEVEKELFALKPMNCPGHCLMFDHRPRSWRELPLRLADFGVLHRNELSGALTGLTRVRRFQQDDAHIFCAMEQIEDEIKGCLDFLRTVYSVFGFSFKLNLSTRPEKFLGDIEVWDQAEKQLENSLNEFGEKWELNSGDGAFYGPKIDIQIKDAIGRYHQCATIQLDFQVPIRFNLTYVSHDGDDKKRPVIVHRAILGSVERMIAILTENYGGKWPFWLSPRQVMVVPVGPTCDEYAQKVRQQFHDAKFMADIDLDPGCTLNKKIRNAQLAQYNFILVVGEKEKISGTVNIRTRDNKVHGERTISETIERLQQLKEFRSKQAEEEF
B2 was tested, and the “sensitivity of synthetase-induced CAM angiogenesis to BC194” value ([4]; protein plus BC194 applied to CAM) was “not inhibited”, the “CAM vessel formation / vascularity, effect of applied synthetase” value [4] was “stimulated vessel formation” and the aminoacylation activity (tRNAThr) was “not compromised”.

B3: R442A TARS: aminoacylation-deficient human TARS mutant; essential catalytic arginine 442 exchanged for alanine (protein, listed as Homo sapiens)
chain: MFEEKASSPSGKMGGEEKPIGAGEEKQKEGGKKKNKEGSGDGGRAELNPWPEYIYTRLEMYNILKAEHDSILAEKAEKDSKPIKVTLPDGKQVDAESWKTTPYQIACGISQGLADNTVIAKVNNVVWDLDRPLEEDCTLELLKFEDEEAQAVYWHSSAHIMGEAMERVYGGCLCYGPPIENGFYYDMYLEEGGVSSNDFSSLEALCKKIIKEKQAFERLEVKKETLLAMFKYNKFKCRILNEKVNTPTTTVYRCGPLIDLCRGPHVRHTGKIKALKIHKNSSTYWEGKADMETLQRIYGISFPDPKMLKEWEKFQEEAKNRDHRKIGRDQELYFFHELSPGSCFFLPKGAYIYNALIEFIRSEYRKRGFQEVVTPNIFNSRLWMTSGHWQHYSENMFSFEVEKELFALKPMNCPGHCLMFDHRPRSWRELPLRLADFGVLHANELSGALTGLTRVRRFQQDDAHIFCAMEQIEDEIKGCLDFLRTVYSVFGFSFKLNLSTRPEKFLGDIEVWDQAEKQLENSLNEFGEKWELNSGDGAFYGPKIDIQIKDAIGRYHQCATIQLDFQLPIRFNLTYVSHDGDDKKRPVIVHRAILGSVERMIAILTENYGGKWPFWLSPRQVMVVPVGPTCDEYAQKVRQQFHDAKFMADIDLDPGCTLNKKIRNAQLAQYNFILVVGEKEKISGTVNIRTRDNKVHGERTISETIERLQQLKEFRSKQAEEEF
For B3, the “CAM vessel formation / vascularity, effect of applied synthetase” value [4] was “virtually indistinguishable from wild type”, the aminoacylation activity (tRNAThr) was “essentially no aminoacylation activity; also recorded: virtually negligible aminoacylation function” and the Ap4A production rate (TARS [2]) was “no appreciable activity; also recorded: blocked”. The Ap4G formation rate (TARS [3]) was “not catalyzed; also recorded: blocked”.
